Test results from patent US20240117018A1.

How the values were obtained:
Assay in all cases: cell-based or functional assay
[1] = target: HIV-1 Env of pseudovirus 1006_11_C3_1601 (HIV-1)
[2] = target: HIV-1 Env of pseudovirus 1054_07_TC4_1499 (HIV-1)
[3] = target: HIV-1 Env of pseudovirus 1056_10_TA11_1826 (HIV-1)
[4] = target: HIV-1 Env of pseudovirus 1394C9G1(Rev-) (HIV-1)
[5] = target: HIV-1 Env of pseudovirus 246F C1G (HIV-1)
[6] = target: HIV-1 Env of pseudovirus 3415.v1.c1 (HIV-1)
[7] = target: HIV-1 Env of pseudovirus 62357_14_D3_4589 (HIV-1)
[8] = target: HIV-1 Env of pseudovirus 6240_08_TA5_4622 (HIV-1)
[9] = target: HIV-1 Env of pseudovirus 6244_13_B5_4576 (HIV-1)
[10] = target: HIV-1 Env of pseudovirus 6535.3 (HIV-1)
[11] = target: HIV-1 Env of pseudovirus 7030102001E5(Rev-) (HIV-1)
[12] = target: HIV-1 Env of pseudovirus BF1266.431a (HIV-1)
[13] = target: HIV-1 Env of pseudovirus CAAN5342.A2 (HIV-1)
[14] = target: HIV-1 Env of pseudovirus CAP45.2.00.G3 (HIV-1)
[15] = target: HIV-1 Env of pseudovirus CNE19 (HIV-1)
[16] = target: HIV-1 Env of pseudovirus CNE20 (HIV-1)
[17] = target: HIV-1 Env of pseudovirus CNE21 (HIV-1)
[18] = target: HIV-1 Env of pseudovirus CNE58 (HIV-1)
[19] = target: HIV-1 Env of pseudovirus Ce0393_C3 (HIV-1)
[20] = target: HIV-1 Env of pseudovirus Ce0682_E4 (HIV-1)
[21] = target: HIV-1 Env of pseudovirus Ce1172_H1 (HIV-1)
[22] = target: HIV-1 Env of pseudovirus Ce703010054_2A2 (HIV-1)
[23] = target: HIV-1 Env of pseudovirus Du422.1 (HIV-1)
[24] = target: HIV-1 Env of pseudovirus HIV-001428-2.42 (HIV-1)
[25] = target: HIV-1 Env of pseudovirus HIV-16055-2.3 (HIV-1)
[26] = target: HIV-1 Env of pseudovirus HIV-16845-2.22 (HIV-1)
[27] = target: HIV-1 Env of pseudovirus Q23.17 (HIV-1)
[28] = target: HIV-1 Env of pseudovirus Q461.e2 (HIV-1)
[29] = target: HIV-1 Env of pseudovirus Q842.d12 (HIV-1)
[30] = target: HIV-1 Env of pseudovirus RHPA4259.7 (HIV-1)
[31] = target: HIV-1 Env of pseudovirus SC05_8C11_2344 (HIV-1)
[32] = target: HIV-1 Env of pseudovirus SC422661.8 (HIV-1)
[33] = target: HIV-1 Env of pseudovirus TRJO4551.58 (HIV-1)
[34] = target: HIV-1 Env of pseudovirus ZM197M.PB7 (HIV-1)
[35] = target: HIV-1 Env of pseudovirus ZM249M.PL1 (HIV-1)

Substance: NIH 45-46 (antibody)
- IC50 [1]: 0.05 µg/mL
- IC80 [1]: 0.31 µg/mL
- IC50 [2]: 0.07 µg/mL
- IC80 [2]: 0.61 µg/mL
- IC50 [3]: 0.12 µg/mL
- IC80 [3]: 0.59 µg/mL
- IC50 [4]: 0.09 µg/mL
- IC80 [4]: 0.38 µg/mL
- IC50 [5]: > 50 µg/mL
- IC80 [5]: > 50 µg/mL
- IC50 [6]: 0.07 µg/mL
- IC80 [6]: 0.07 µg/mL
- IC50 [7]: 0.05 µg/mL
- IC80 [7]: 0.22 µg/mL
- IC50 [8]: 0.44 µg/mL
- IC80 [8]: 1.55 µg/mL
- IC50 [9]: 0.07 µg/mL
- IC80 [9]: 0.26 µg/mL
- IC50 [10]: 0.14 µg/mL
- IC80 [10]: 0.28 µg/mL
- IC50 [11]: 0.14 µg/mL
- IC80 [11]: 0.63 µg/mL
- IC50 [12]: 0.01 µg/mL
- IC80 [12]: 0.03 µg/mL
- IC50 [13]: 0.11 µg/mL
- IC80 [13]: 0.33 µg/mL
- IC50 [14]: > 50 µg/mL
- IC80 [14]: > 50 µg/mL
- IC50 [15]: 0.07 µg/mL
- IC80 [15]: 0.37 µg/mL
- IC50 [16]: 8.71 µg/mL
- IC80 [16]: 47 µg/mL
- IC50 [17]: 7.53 µg/mL
- IC80 [17]: > 50 µg/mL
- IC50 [18]: 0.25 µg/mL
- IC80 [18]: 1.49 µg/mL
- IC50 [19]: 0.32 µg/mL
- IC80 [19]: 1.07 µg/mL
- IC50 [20]: 0.07 µg/mL
- IC80 [20]: 0.25 µg/mL
- IC50 [21]: > 50 µg/mL
- IC80 [21]: > 50 µg/mL
- IC50 [22]: 0.22 µg/mL
- IC80 [22]: 0.97 µg/mL
- IC50 [23]: > 50 µg/mL
- IC80 [23]: > 50 µg/mL
- IC50 [24]: < 0.001 µg/mL
- IC80 [24]: 0.01 µg/mL
- IC50 [25]: 0.02 µg/mL
- IC80 [25]: 0.06 µg/mL
- IC50 [26]: 2.05 µg/mL
- IC80 [26]: 12.1 µg/mL
- IC50 [27]: 0.14 µg/mL
- IC80 [27]: 0.6 µg/mL
- IC50 [28]: 0.06 µg/mL
- IC80 [28]: 0.32 µg/mL
- IC50 [29]: 0.03 µg/mL
- IC80 [29]: 0.03 µg/mL
- IC50 [30]: < 0.05 µg/mL
- IC80 [30]: < 0.05 µg/mL
- IC50 [31]: 0.14 µg/mL
- IC80 [31]: 0.38 µg/mL
- IC50 [32]: 0.01 µg/mL
- IC80 [32]: 0.07 µg/mL
- IC50 [33]: 0.01 µg/mL
- IC80 [33]: 0.05 µg/mL
- IC50 [34]: 0.14 µg/mL
- IC80 [34]: 0.64 µg/mL
- IC50 [35]: 0.02 µg/mL
- IC80 [35]: 0.06 µg/mL

Substance: 3BNC117 (antibody)
- IC50 [1]: 0.03 µg/mL
- IC80 [1]: 0.1 µg/mL
- IC50 [2]: 0.07 µg/mL
- IC80 [2]: 0.49 µg/mL
- IC50 [3]: 0.3 µg/mL
- IC80 [3]: 1.82 µg/mL
- IC50 [4]: > 50 µg/mL
- IC80 [4]: > 50 µg/mL
- IC50 [5]: 19.3 µg/mL
- IC80 [5]: > 50 µg/mL
- IC50 [6]: 0.17 µg/mL
- IC80 [6]: 0.47 µg/mL
- IC50 [7]: 0.06 µg/mL
- IC80 [7]: 0.26 µg/mL
- IC50 [8]: 0.33 µg/mL
- IC80 [8]: 1.17 µg/mL
- IC50 [9]: 0.04 µg/mL
- IC80 [9]: 0.15 µg/mL
- IC50 [10]: 0.55 µg/mL
- IC80 [10]: 2.44 µg/mL
- IC50 [11]: 0.29 µg/mL
- IC80 [11]: 1.44 µg/mL
- IC50 [12]: 0.03 µg/mL
- IC80 [12]: 0.09 µg/mL
- IC50 [13]: 0.42 µg/mL
- IC80 [13]: 1.51 µg/mL
- IC50 [14]: 3.88 µg/mL
- IC80 [14]: > 50 µg/mL
- IC50 [15]: 0.02 µg/mL
- IC80 [15]: 0.08 µg/mL
- IC50 [16]: > 50 µg/mL
- IC80 [16]: > 50 µg/mL
- IC50 [17]: 45.4 µg/mL
- IC80 [17]: > 50 µg/mL
- IC50 [18]: 0.25 µg/mL
- IC80 [18]: 2.03 µg/mL
- IC50 [19]: 0.2 µg/mL
- IC80 [19]: 0.67 µg/mL
- IC50 [20]: 0.03 µg/mL
- IC80 [20]: 0.15 µg/mL
- IC50 [21]: > 50 µg/mL
- IC80 [21]: > 50 µg/mL
- IC50 [22]: 0.37 µg/mL
- IC80 [22]: 1.67 µg/mL
- IC50 [23]: > 50 µg/mL
- IC80 [23]: > 50 µg/mL
- IC50 [24]: 0.003 µg/mL
- IC80 [24]: 0.02 µg/mL
- IC50 [25]: 5.6 µg/mL
- IC80 [25]: > 50 µg/mL
- IC50 [26]: 27.5 µg/mL
- IC80 [26]: > 50 µg/mL
- IC50 [27]: 0.005 µg/mL
- IC80 [27]: 0.02 µg/mL
- IC50 [28]: 0.03 µg/mL
- IC80 [28]: 0.09 µg/mL
- IC50 [29]: < 0.01 µg/mL
- IC80 [29]: 0.01 µg/mL
- IC50 [30]: < 0.09 µg/mL
- IC80 [30]: < 0.09 µg/mL
- IC50 [31]: 0.15 µg/mL
- IC80 [31]: 0.51 µg/mL
- IC50 [32]: 0.02 µg/mL
- IC80 [32]: 0.08 µg/mL
- IC50 [33]: 0.05 µg/mL
- IC80 [33]: 0.19 µg/mL
- IC50 [34]: 0.22 µg/mL
- IC80 [34]: 1.03 µg/mL
- IC50 [35]: 0.03 µg/mL
- IC80 [35]: 0.11 µg/mL
